Data published in publication PMC6943663, “A Single-Turnover Kinetic Study of DNA Demethylation Catalyzed by Fe(II)/α-Ketoglutarate-Dependent Dioxygenase AlkB”.

What was measured:
[1] = biological target: T1, AlkB (Escherichia coli, UniProt P05050 1-216); assay: stopped-flow 2aPu fluorescence, global fit (enzyme-product complex); Fe(II), aKG; after turnover; 50 mM HEPES-KOH pH 7.5, 50 mM KCl, 10 mM MgCl2, 40 uM Fe(II), 1 mM aKG, 2 mM ascorbate (composition as given for the anaerobic runs); stopped-flow at 37 C; titration temperature not given in the material; conditions: protein: recombinant, tags: His6, label: 2-aminopurine
T1 sequence: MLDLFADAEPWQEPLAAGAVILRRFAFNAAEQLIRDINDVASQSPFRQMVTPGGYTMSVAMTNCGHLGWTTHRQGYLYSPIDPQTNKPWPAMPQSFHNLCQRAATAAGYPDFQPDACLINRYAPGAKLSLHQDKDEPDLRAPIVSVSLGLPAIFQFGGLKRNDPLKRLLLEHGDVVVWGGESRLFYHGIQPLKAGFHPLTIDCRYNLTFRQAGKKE

[2] = biological target: T1, AlkB; assay: stopped-flow FRET, global fit (enzyme-product complex); Fe(II), aKG; after turnover; 50 mM HEPES-KOH pH 7.5, 50 mM KCl, 10 mM MgCl2, 40 uM Fe(II), 1 mM aKG, 2 mM ascorbate (composition as given for the anaerobic runs); stopped-flow at 37 C; titration temperature not given in the material; conditions: protein: recombinant, tags: His6, label: 5'-FAM
[3] = biological target: T1, AlkB; assay: stopped-flow FRET; Fe(II), aKG; 50 mM HEPES-KOH pH 7.5, 50 mM KCl, 10 mM MgCl2, 40 uM Fe(II), 1 mM aKG, 2 mM ascorbate (composition as given for the anaerobic runs); stopped-flow at 37 C; titration temperature not given in the material; conditions: protein: recombinant; tags: His6; label: 5'-FAM, 3'-BHQ1 on strand 1; blunt
[4] = biological target: T1, AlkB; assay: stopped-flow Trp fluorescence, from rate constants of steps 1-3; Fe(II), aKG; 50 mM HEPES-KOH pH 7.5, 50 mM KCl, 10 mM MgCl2, 40 uM Fe(II), 1 mM aKG, 2 mM ascorbate (composition as given for the anaerobic runs); stopped-flow at 37 C; titration temperature not given in the material; conditions: protein: recombinant; tags: His6; single strand

B1: ds15A_2aPu (demethylated product of ds15m1A_2aPu) (dsDNA)
DNA 1: ACAGGAACCGGCATA
DNA 2: TATGCCGGTTCCTGT
modifications: 2-aminopurine at position 7 of strand 1 (written A)
Kd ([1]; blunt): 1.8 µM

B2: ss15A_2aPu (demethylated product of ss15m1A_2aPu) (ssDNA)
DNA: ACAGGAACCGGCATA
modifications: 2-aminopurine at position 7 (written A)
Kd ([1]; single strand): 2.2 µM

B3: ds15A_FRET (demethylated product of ds15m1A_FRET) (dsDNA)
DNA 1: ACAGGATCCGGCATA
DNA 2: TATGCCGGATCCTGT
Kd ([2]; 3'-BHQ1 on strand 1, blunt): 4.4 µM

B4: ss15A_FRET (demethylated product of ss15m1A_FRET) (ssDNA)
DNA: ACAGGATCCGGCATA
Kd ([2]; 3'-BHQ1, single strand): 0.31 µM

B5: ds15m1A_FRET (dsDNA)
DNA 1: ACAGGATCCGGCATA
DNA 2: TATGCCGGATCCTGT
modifications: N1-methyladenine at position 6 of strand 1
binding result [3]: binds

B6: ss15m1A (ssDNA)
DNA: ACAGGATCCGGCATA
modifications: N1-methyladenine at position 6
Kd [4]: 0.0043 µM
